Where two headings read alike, the source gives them in different places.
How the values were obtained:
[1] = SPR (Biacore) Protein A mAb capture, Compound A injected; conditions: 37° C., binding to Compound A, for rank ordering only
Experimental: The binding of hybridoma expressed 26D5 parent mAb (VH SEQ ID NO: 83 and VL SEQ ID NO: 98 in IgG1 f format)(P1-072224) and affinity matured mAbs to Compound A was examined by SPR (Biacore™) using a protein A capture method. The running buffer was 1×PBS (phosphate buffered saline, pH 7.4) with 0.05% Tween 20 and 2% DMSO. Binding experiments were carried out at 37° C. Protein A was coated on a CM5 S-series sensor chip (Cytiva, Cat. No. 29149603) at high density (2000+ RUs of protein A). The immobilization of protein A was carried out using the standard amine coupling immobilization procedure recommended by the manufacturer. The affinity matured antibody was then captured at a concentration of 2 ug/mL on the protein A surface at a flow rate of 3 uL/min for 2 minutes. Compound A was then injected over the captured antibody at concentrations spanning 100-3 nM (100, 50, 25, 12.5, 6.25, 3.125 nM) (FIG. 10) and for screening concentrations spanning 100-3 nM (100, 33, 11 nM) for 2 minutes at a flow rate of 100 uL/min and allowed to dissociate for at least 450 seconds. The chip surface was regenerated after each cycle with a 40 second pulse of 10 mM Glycine, pH 1.5. Background binding to the protein A surface alone was used to subtract non-specific binding. All experiments were run on a Biacore T200 surface plasmon resonance instrument using Biacore T200 Control software v. 2. Data analysis was performed using Biacore T200 evaluation software v 3.1. Apparent affinities were determined for rank ordering only since dissociation rates were too slow to be measured by Biacore. The names of the mAbs in Table 10 refer to mAbs having the H and L chain sequences of the corresponding Fabs in Table 3 in an IgG1f format.

[2] = Competitive TR-FRET assay modified for mAbs and Fabs (T0, T24, T48); format: binding; conditions: 37° C.; for T24 hr IC50 shift: IC50 shift at 24 hr relative to T0; for T48 hr IC50 shift: IC50 shift at 48 hr relative to T0
Experimental: A competitive TR-FRET (time-resolved fluorescence resonance energy transfer) assay was developed to rank-order the dissociation of α-Compound A mAbs from Compound A as equilibrium is reached at 37° C. The assay buffer was HBS-N (10 mM HEPES, 150 mM NaCl, pH 7.4; GE Healthcare), 0.1% (w/v) BSA (bovine serum albumin; Sigma), 2% DMSO (dimethyl sulfoxide; Sigma). All reagents were prepared in assay buffer and dispensed in equal volumes into white 384 microplates with final volume of 20 μl per well at the following final concentrations: 4 nM COMPOUND 5, the biotinylated analog of COMPOUND 2, a 100 0.1 nM 7-pt titration of human α-Compound A antibodies, 0.1 nM europium-labeled α-mouse IgG (LANCE Eu-W1024; PerkinElmer), 5 nM streptavidin-D2 (Cisbio), and 4 nM mAb 26D5 VH_A10G_Y33A_S53P_M89V_G95A; VK_W32N_H38Q (P1-075621, the second-round optimization parent 26D5-295-B08 formatted with mouse IgG Fc). COMPOUND 5 and α-Compound A antibody titrations were added first to the microplate, and were subjected to an initial incubation at 37° C., 1000 rpm, for one hour to facilitate antibody binding to the compound. After the initial incubation period, the europium α-mouse IgG, streptavidin-D2, and 26D5-mouse IgG (P1-075621) were added sequentially, then the plate was returned to 37° C., 1000 rpm incubation. Microplates were read using a Perkin Elmer EnVision plate reader, and the measured FRET signal was defined as [665 nm]/[620 nm]*10,000. Microplates were read at 30 minutes (T0) and after 24 hour (T24) intervals. For each antibody titration, the FRET signal was converted to % Inhibition relative to wells without α-Compound A antibody: (100 ((FRET at [antibody concentration]/FRET at 0 nM)*100). The % inhibition antibody titrations were plotted using TIBCO Spotfire (v.7), and the IC50 was determined using a 4-parameter model curve fit. The IC50s at each timepoint were reported, as well as the IC50 curve shift relative to T0. An IC50 curve shift indicated α-Compound A antibody dissociation from the biotinylated compound as the assay reached equilibrium, which subsequently allowed 26D5-mouse IgG1 (P1-075621) competitor to bind and generate the FRET signal detected in the assay.
The competitive TR-FRET assay defined above was also modified to assess optimized 26D5 antibody progeny that were reformatted as Fabs. The α-Compound A antibody and Fab titration series were extended to 250 0.244 nM (11-pt titration), and replicates of each concentration were collected in quadruplicate. The assay incubation was extended to include an additional 48 hr timepoint to ensure equilibrium was reached, and T48 hr IC50 and IC50 shifts were reported. The % inhibition titrations were plotted in Graphpad Prism (v.8) and fit to a 4-parameter model. All other experimental setup conditions were otherwise identical to the antibody TF-FRET assay.
Competitive FRET data collected for affinity-optimized α-Compound A 26D5 progeny comparing human antibodies and Fabs are shown in FIG. 14 and Table 13. Each panel represents a single α-Compound A sequence, with antibody (mAb, solid lines, circles) and Fab (dotted lines, triangles) formats overlaid. […] The names of the mAbs/Fabs in Table 13 refer to the corresponding sequences in Tables 1-3. All mAbs listed in Table 13 were in a human IgG1f/LC kappa format.

[3] = apparent affinity, read-out: KD
[4] = read at 30 minutes (T0), competitor 26D5-mouse IgG (P1-075621), read-out: T0 IC50

Row | Kd [1, 3] [nM] | Kd ([1]; apparent) [s⁻¹] | IC50 ([2]; 24 hr, read-out: T24 hr IC50) [nM] | IC50 ([2]; 48 hr, read-out: T48 hr IC50) [nM] | IC50 [2, 4] [nM] | Molecule | Ka ([1]; apparent) [M⁻¹ s⁻¹] | T24 hr IC50 shift [2] [nM] | T48 hr IC50 shift [2] [nM]
1 | < 0.1 | <0.00041 | 2.2 | 2.3 | 1.2 | 26D5-75768-348-A10-mAb: human IgG1f/kappa mAb; VH SEQ ID NO: 56, VL SEQ ID NO: 89 (antibody, V domains shown) VH: EVQLVESGGGLIQPGGSLRLSCAASGFTVSSNAVSIVRQAPGKGLEWVAYIYPGGRTYYADSVKGRFTISRDNSKNTLYLQMNSLRAEDTAVYYCTIGGFGGGDYWGQGTLVTVSS VL: DIQMTQSPSSVSASVGDRVTITCRASQGISSNNQWYQQKPGKAPKLLIYYASSLQSGVPSRFSGSGSGTDFTLTISSLQPEDFATYYCQQGNEFPLTFGGGTKVEIK | 3.8e+06 | 1.0 | 1.1
2 | < 0.07 | <5e-05 | 2.4 | 2.5 | 1.3 | 26D5-75229-343-A10-mAb: human IgG1f/kappa mAb; VH SEQ ID NO: 52, VL SEQ ID NO: 84 (antibody, V domains shown) VH: EVQLVESGGGLIQPGGSLRLSCAASGFTVSSNAMSWVRQAPGKGLEWVSYIYPGGRTYYADSVKGRFTISRDNSKNTLYLQMNSLRAEDTAVYYCARAGFGGPDYWGQGTLVTVSS VL: DIQMTQSPSSVSASVGDRVTITCRASQGISSNLAWYQQKPGKAPKLLIYAASSLQSGVPSRFSGSGSGTDFTLTISSLQPEDFATYYCQQANQFPLTFGGGTKVEIK | 770000 | 1.1 | 1.1
3 |  |  | > 38.2 | > 43.1 | 2.2 | P1-074468-1: first round optimization progeny Fab; VH SEQ ID NO: 62, VL SEQ ID NO: 88 (antibody, V domains shown) VH: EVQLVESGGGLIQPGGSLRLSCAASGFQVSSNAMSWVRQAPGKGLEWVSFIYPGGRTYYADSVKGRFTISRDNSKNTLYLQMNSLRAEDTAVYYCARGGFGGGDYWGQGTLVTVSS VL: DIQMTQSPSSVSASVGDRVTITCRASQGISSNLAWYQQKPGKAPKLLIYAASSLQSGVPSRFSGSGSGTDFTLTISSLQPEDFATYYCQQANSFPLTFGGGTKVEIK |  | >36.0 | 
4 | < 0.09 | <5e-05 | 2.5 | 2.9 | 1.4 | 26D5-75202-343-A09-mAb: human IgG1f/kappa mAb; VH SEQ ID NO: 54, VL SEQ ID NO: 86 (antibody, V domains shown) VH: EVQLVESGGGLIQPGGSLRLSCAASGFTVSSNAMSWVRQAPGKGLEWVSYIYPGGRTYYADSVKGRFTISRDNSKNTLYLQMNSLRAEDTAVYYCARAGFGGGDYWGQGTLVTVSS VL: DIQMTQSPSSVSASVGDRVTITCRASQGIYSNLAWYQQKPGKAPKLLIYAASSLQSGVPSRFSGSGSGTDFTLTISSLQPEDFATYYCQQANEFPLTFGGGTKVEIK | 590000 | 1.1 | 1.5
5 | 0.71 | 0.0012 |  |  |  | 26D5-296-D03-mAb: human IgG1f/kappa mAb; VH SEQ ID NO: 76, VL SEQ ID NO: 88 (antibody, V domains shown) VH: EVQLVESGGGLIQPGGSLRLSCAASGFTVSSNYMSWVRQAPGKGLEWVSFIYSGGETFYADSVKGRFTISRDNSKNTLYLQMNSLRAEDTAVYYCARGGFGGGDYWGQGTLVTVSS VL: DIQMTQSPSSVSASVGDRVTITCRASQGISSNLAWYQQKPGKAPKLLIYAASSLQSGVPSRFSGSGSGTDFTLTISSLQPEDFATYYCQQANSFPLTFGGGTKVEIK | 1.7e+06 |  | 
6 |  |  | > 28.2 | > 28.8 | 2.6 | P1-073708-1: 26D5 parent Fab (Fab 26D5-GV-Q); VH SEQ ID NO: 82, VL SEQ ID NO: 99 (antibody, V domains shown) VH: EVQLVESGGGLIQPGGSLRLSCAASGFTVSSNYMSWVRQAPGKGLEWVSFIYSGGRTYYADSVKGRFTISRDNSKNTLYLQMNSLRAEDTAVYYCARGGFGGGDYWGQGTLVTVSS VL: DIQMTQSPSSVSASVGDRVTITCRASQGISSWLAWYQQKPGKAPKLLIYAASSLQSGVPSRFSGSGSGTDFTLTISSLQPEDFATYYCQQANSFPLTFGGGTKVEIK |  | >25.7 | >26.2
7 | 1.4 | 0.0014 |  |  |  | 26D5-296-C07-mAb: human IgG1f/kappa mAb; VH SEQ ID NO: 77, VL SEQ ID NO: 94 (antibody, V domains shown) VH: EVQLVESGGGLIQPGGSLRLSCAASGITVSSNYMSWVRQAPGKGLEWVSFIYSGGRTYYADSVKGRFTISRDNSKNTLYLQMNSLRAEDTAVYYCARGGFGGGDYWGQGTLVTVSS VL: DIQMTQSPSSVSASVGDRVTITCRASQYISSNLAWYQQKPGKAPKLLIYAASSLQSGVPSRFSGSGSGTDFTLTISSLQPEDFATYYCQQANSFPLTFGGGTKVEIK | 950000 |  | 
8 | < 0.05 | <5e-05 | 2.5 | 2.7 | 1.3 | 26D5-75214-343-F06-mAb: human IgG1f/kappa mAb; VH SEQ ID NO: 53, VL SEQ ID NO: 85 (antibody, V domains shown) VH: EVQLVESGGGLIQPGGSLRLSCAASGFTVSSNAMSWVRQAPGKGLEWVSFIYPGGRTYYADSVKGRFTISRDNSKNTLYLQMNSLRAEDTAVYYCARAGFGGPDYWGQGTLVTVSS VL: DIQMTQSPSSVSASVGDRVTITCRASQGISSNLAWYQQKPGKAPKLLIYAASSLQSGVPSRFSGSGSGTDFTLTISSLQPEDFATYYCQQANEFPLTFGGGTKVEIK | 1.2e+06 | 1.3 | 1.4

From patent US12065505B2, “Antibodies and antigen binding peptides for factor XIa inhibitors and uses thereof” (Bristol-Myers Squibb Company, priority 2021, dated 2024)
